What was measured:
F-actin = F-actin (UniProt P68135); test: co-sedimentation
R1003W GFP-βIISp (human) = R1003W GFP-βIISp (human) (UniProt Q01082); test: pull-down
R1003W GFP-βIISp (human), sequence (Q01082 whole entry R1003W): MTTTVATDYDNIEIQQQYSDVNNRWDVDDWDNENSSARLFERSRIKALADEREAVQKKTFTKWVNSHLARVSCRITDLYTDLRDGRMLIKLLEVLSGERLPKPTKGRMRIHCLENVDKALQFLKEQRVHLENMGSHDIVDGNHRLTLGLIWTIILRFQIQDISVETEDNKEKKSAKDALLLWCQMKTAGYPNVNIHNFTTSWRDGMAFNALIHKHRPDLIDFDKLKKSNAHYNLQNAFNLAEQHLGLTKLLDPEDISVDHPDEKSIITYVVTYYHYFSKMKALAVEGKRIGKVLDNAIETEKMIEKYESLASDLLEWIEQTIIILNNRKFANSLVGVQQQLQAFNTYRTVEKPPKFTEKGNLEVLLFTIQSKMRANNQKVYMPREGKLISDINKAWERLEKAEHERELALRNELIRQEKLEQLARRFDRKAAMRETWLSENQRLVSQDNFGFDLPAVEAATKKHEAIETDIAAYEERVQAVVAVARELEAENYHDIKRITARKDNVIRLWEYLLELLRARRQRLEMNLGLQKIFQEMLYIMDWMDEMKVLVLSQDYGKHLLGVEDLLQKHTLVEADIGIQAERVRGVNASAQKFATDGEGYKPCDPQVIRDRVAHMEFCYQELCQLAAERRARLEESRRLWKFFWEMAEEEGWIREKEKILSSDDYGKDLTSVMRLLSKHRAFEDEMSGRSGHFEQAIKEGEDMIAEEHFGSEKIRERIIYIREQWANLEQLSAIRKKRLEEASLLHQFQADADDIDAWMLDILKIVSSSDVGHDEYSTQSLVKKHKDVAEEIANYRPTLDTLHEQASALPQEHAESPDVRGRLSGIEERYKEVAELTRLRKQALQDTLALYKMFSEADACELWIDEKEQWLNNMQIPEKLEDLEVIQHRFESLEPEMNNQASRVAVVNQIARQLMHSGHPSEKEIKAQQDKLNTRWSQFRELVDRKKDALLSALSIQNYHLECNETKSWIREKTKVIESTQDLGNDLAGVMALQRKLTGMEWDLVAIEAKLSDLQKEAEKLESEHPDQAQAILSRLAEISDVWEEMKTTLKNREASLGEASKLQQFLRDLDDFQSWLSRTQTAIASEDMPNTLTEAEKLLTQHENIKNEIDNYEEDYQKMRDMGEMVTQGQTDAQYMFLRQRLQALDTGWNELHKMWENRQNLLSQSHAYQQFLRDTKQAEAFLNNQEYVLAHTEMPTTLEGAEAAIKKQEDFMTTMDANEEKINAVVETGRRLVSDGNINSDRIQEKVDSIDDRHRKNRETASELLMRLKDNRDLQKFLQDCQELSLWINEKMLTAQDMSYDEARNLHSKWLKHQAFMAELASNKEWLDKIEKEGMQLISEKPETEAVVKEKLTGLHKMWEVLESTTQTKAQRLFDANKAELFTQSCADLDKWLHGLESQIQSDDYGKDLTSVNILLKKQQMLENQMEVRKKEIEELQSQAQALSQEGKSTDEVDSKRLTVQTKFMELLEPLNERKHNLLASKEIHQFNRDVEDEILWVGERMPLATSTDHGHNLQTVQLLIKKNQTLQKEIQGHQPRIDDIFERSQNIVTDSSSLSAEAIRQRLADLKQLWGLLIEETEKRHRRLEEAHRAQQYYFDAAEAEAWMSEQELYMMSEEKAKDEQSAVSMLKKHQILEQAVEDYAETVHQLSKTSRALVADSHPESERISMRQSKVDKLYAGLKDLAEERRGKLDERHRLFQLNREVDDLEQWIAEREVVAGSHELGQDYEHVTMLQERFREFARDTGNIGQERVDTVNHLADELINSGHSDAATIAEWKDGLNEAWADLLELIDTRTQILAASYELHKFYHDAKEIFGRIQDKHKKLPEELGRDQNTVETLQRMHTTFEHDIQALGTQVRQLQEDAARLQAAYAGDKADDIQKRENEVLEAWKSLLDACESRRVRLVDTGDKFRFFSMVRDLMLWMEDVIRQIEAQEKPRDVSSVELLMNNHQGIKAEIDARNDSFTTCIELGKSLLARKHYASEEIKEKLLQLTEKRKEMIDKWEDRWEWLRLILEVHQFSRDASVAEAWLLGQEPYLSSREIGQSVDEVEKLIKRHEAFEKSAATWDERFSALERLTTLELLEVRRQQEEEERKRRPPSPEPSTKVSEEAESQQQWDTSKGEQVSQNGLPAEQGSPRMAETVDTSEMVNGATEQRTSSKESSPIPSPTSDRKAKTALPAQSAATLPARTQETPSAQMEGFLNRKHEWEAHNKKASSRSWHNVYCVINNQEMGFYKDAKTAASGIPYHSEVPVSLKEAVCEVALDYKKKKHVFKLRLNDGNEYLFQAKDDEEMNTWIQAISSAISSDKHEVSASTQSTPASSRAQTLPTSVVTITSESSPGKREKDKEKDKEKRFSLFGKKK

Row | Substance | percent less association with F-actin than WT (F-actin) | also measured
1 | purified full-length βII-spectrin p.I159_Q160del (from UniProt Q01082-1 1-2364) (natural protein) | 70% | 
2 | mCherry-tagged αII-spectrin, Q13813-2 1-2477 |  | percent reduction of association against WT GFP-βIISp (R1003W GFP-βIISp (human)): 40%
3 | purified full-length βII-spectrin p.T59I (from UniProt Q01082-1 1-2364) (natural protein) | 40% | 
4 | purified full-length βII-spectrin p.A850G (from UniProt Q01082-1 1-2364) (natural protein) |  | percent higher F-actin binding than WT (F-actin): 50%
